Measurements: publication doi:10.64898/2025.12.17.694860 (2025)

Biological target: T1, Trypanosoma brucei enolase (Trypanosoma brucei)
T1 chain: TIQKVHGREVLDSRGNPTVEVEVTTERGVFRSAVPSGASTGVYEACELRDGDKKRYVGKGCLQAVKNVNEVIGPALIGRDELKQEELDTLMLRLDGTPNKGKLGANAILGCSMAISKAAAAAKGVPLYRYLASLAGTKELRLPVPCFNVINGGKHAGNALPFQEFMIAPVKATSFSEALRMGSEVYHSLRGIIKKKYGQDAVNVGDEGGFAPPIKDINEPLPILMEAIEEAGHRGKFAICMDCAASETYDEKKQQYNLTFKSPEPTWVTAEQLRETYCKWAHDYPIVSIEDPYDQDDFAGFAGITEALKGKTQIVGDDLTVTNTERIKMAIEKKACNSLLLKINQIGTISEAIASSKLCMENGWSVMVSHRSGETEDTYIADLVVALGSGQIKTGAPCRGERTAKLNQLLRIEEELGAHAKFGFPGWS
Test: ITC

B1: sdAbR1-10 (VHH)
VHH: QVQLQESGGGLVQPGGSLRLSCAAPGSIFSIFSGNIMGWYRQAPGKQRDFVASISSGGATNYADSVKGRFTISRDNAKNTVYLQMNNLKPEDTAVYYCNTVGGVHTNSWGQGTQVTVSS
- Kd: 18.6 nM
